First the molecules themselves.
B1: Hairpin Ribozyme (parent)
chain: GUCCUCUUUCACGUGCGCGUGAAAGAGAGAAGUGAACCAGAGAAACACACGUUGUGGUAUAUUACCUGGUA

The variants in the data set derive from B1. As to the kind of experiment: self-cleavage, relative activity (ratio to wild type); higher = more cleavage; co-transcriptional.
With GUCAUCUUUCACGUGCGCGGGAAAGAGAGAAGUGAACCAGAGAAACACACGUUGUGGUAUAUUACCUGGUA, the self-cleavage stood at 0.259.
For the variant GUCAUCUUUCACGUGCGCAUGAAAGAGAGAAGUGAACCAGAGAAACACACGUUGUGGUAUAUUACCUGGUA, the self-cleavage came out at 0.174.
For GUCAUCUUUCACGUGCGCGUGAAAGAGAGAAGUGAACCAGAGAAACACACGUUGUGGUAUAUUGCCUGGUA, the self-cleavage turned out to be 0.134.
Under GUCAUCUUUCACGUGCGCGUGAAAGAGAGAAGUGAACCAGAGAAACACACGUUGUGGUAUUUUACCUGGUA stands 0.122; under GUCAUCUUUCACGUGCGCGUGAAAGAGAGAAGUGAACCAGAGAAACACACGUUGUGGUAUGUUACCUGGUA, 0.279; under GUCAUCUUUCACGUGCGCGUGAAAGAGAGAAGUGAACCAGAGAAACACACGUUGUGGUAUCUUACCUGGUA, 0.173.
Under GUCAUCUUUCACGUGCGCGUGAAAGAGAGAAGUGAACCAGAGAAACACACGUUGUUGUAUAUUACCUGGUA stands 0.166; under GUCAUCUUUCACGUGCGCGUGAAAGAGAGAAGUGAAACAGAGAAACACACGUUGUGGUAUAUUACCUGGUA, 0.159.
Take GUCAUCUUUCACGUGCGCGUGAAAGAGAGAAGUGAAGCAGAGAAACACACGUUGUGGUAUAUUACCUGGUA: the self-cleavage worked out at 0.0599.
For the variant GUCAUCUUUCACGUGCGCGUGAAAGAGAGAAGUGAACCAGAGAAACACACGUUGUGGUAUAUUAUCUGGUA, the self-cleavage was determined as 0.137.
For the variant GUCAUCUUUCACGUGCGCGUGAAAGAGAGAAGGGAACCAGAGAAACACACGUUGUGGUAUAUUACCUGGUA, the self-cleavage turned out to be 0.234.
GUCGUCUUUCCCGUGCGCGUGAAAGAGAGAAGUGAACCAGAGAAACACACGUUGUGGUAUAUUACCUGGUA: the self-cleavage stood at 0.113.
Under GUCGUCUUUCUCGUGCGCGUGAAAGAGAGAAGUGAACCAGAGAAACACACGUUGUGGUAUAUUACCUGGUA stands 0.232; under GUCAUCUUUCACGUGCGCGUGAAAGAGAGAAGUGAACCAGAGAAACACACGCUGUGGUAUAUUACCUGGUA, 0.182.
With GUCAUCUUUCACGUGCGCGUGAAAGAGAGAAGUGAACCAGAGAAACACACGGUGUGGUAUAUUACCUGGUA, the self-cleavage turned out to be 0.22.
With GUCAUCUUUCACGUGCGCGUGAAAGAGAGAAGUGAACCAGAGAAACACACGUUGUGGUAUAUUACCAGGUA, the self-cleavage stood at 0.155.
For GUCAUCUUUCACGUGCGCGUGAAAGAGAGAAGUGAACCAGAGAAACACACGUUGUGGUAUAUUACCGGGUA, the self-cleavage is 0.144.
The same measure for GUCAUUUUUCACGUGCGCGUGAAAGAGAGAAGUGAACCAGAGAAACACACGUUGUGGUAUAUUACCUGGUA: 0.143.
Under GUCAUGUUUCACGUGCGCGUGAAAGAGAGAAGUGAACCAGAGAAACACACGUUGUGGUAUAUUACCUGGUA stands 0.161.
On to GUCGUCUUUCACGUGCGCGUGAAAGAGAGAAGUGAACCAGAGAAACACACGUUGUGGUAUAUUACCUGGUC, for which the self-cleavage is 0.483.
Under GUCGUCUUUCAGGUGCGCGUGAAAGAGAGAAGUGAACCAGAGAAACACACGUUGUGGUAUAUUACCUGGUA stands 0.216; under GUCAUCUUUCACGUGCGCGUGAAAGAGAGAAGUGAACCAGAGAAACACACGUUGUGGUAAAUUACCUGGUA, 0.197.
Under GUCAUCUUUCACGUGCGCGUGAAAGAGAGAAGUGAACCAGAGAAACACACGUUGGGGUAUAUUACCUGGUA stands 0.107.
As to GUCAUCUUUCACGUGCGCGUGAAAGAGAGAAGUGAACCAGAGAAACACACGUUGUGGUAUAAUACCUGGUA, the self-cleavage came out at 0.167.
For GUCAUCUUUCACGUGCGCGUGAAAGAGAGAAGUGAACCAGAGAAACACACGUUGUGGUAUACUACCUGGUA, the self-cleavage was found to be 0.118.
As to GUCGUCUUUCACGUGCGCGUGAAAGAGAGAAGUGAACCAGAGAAACACACGUUGUGGUUUAUUACCUGGUA, the self-cleavage worked out at 0.212.
The same measure for GUCGUCUUUCACGUGCGCGUGAAAGAGAGAAGUGAACCAGAGAAACACACGUUGUGGUGUAUUACCUGGUA: 0.169; for GUCGUCUUUCACGUGCGCGUGAAAGAGAGAAGUGAACCAGAGAAACACACGUUGUGGUCUAUUACCUGGUA: 0.15; for GUCAUCUUUCAGGUGCGCGUGAAAGAGAGAAGUGAACCAGAGAAACACACGUUGUGGUAUAUUACCUGGUA: 0.245.
The same measure for GUCGUCUUUCACGUGCGCGUGAUAGAGAGAAGUGAACCAGAGAAACACACGUUGUGGUAUAUUACCUGGUA: 0.147; for GUCAUCUUUCACGUGCGCGUGAAAGAGAGAAGUGAACCAGAGAAACACACGUUGUGGUAUAUUACCUGGUG: 0.346.
Consider GUCGUAUUUCACGUGCGCGUGAAAGAGAGAAGUGAACCAGAGAAACACACGUUGUGGUAUAUUACCUGGUA, for which the self-cleavage is 0.195.
The same measure for GUCAUCUUUAACGUGCGCGUGAAAGAGAGAAGUGAACCAGAGAAACACACGUUGUGGUAUAUUACCUGGUA: 0.16.
Under GUCAUCUUUUACGUGCGCGUGAAAGAGAGAAGUGAACCAGAGAAACACACGUUGUGGUAUAUUACCUGGUA stands 0.261; under GUCGUCUUUCACGUGCGCGUGGAAGAGAGAAGUGAACCAGAGAAACACACGUUGUGGUAUAUUACCUGGUA, 0.326; under GUCGUCUUUCACGUGCGCGUGUAAGAGAGAAGUGAACCAGAGAAACACACGUUGUGGUAUAUUACCUGGUA, 0.196.
The same measure for GUCAUCUUUCACGUGCGCGUGAAAGAGAGAAGUGAACCAGAGAAACACACGUUGUGUUAUAUUACCUGGUA: 0.169.
For GUCGUCUUUCACGUGCGCGUGAAAGAGAGGAGUGAACCAGAGAAACACACGUUGUGGUAUAUUACCUGGUA, the self-cleavage was found to be 0.069.
The same measure for GUCGUCUUUCACGUGCGCGUGAAAGAGAGAAGUGAACCAGAGAAUCACACGUUGUGGUAUAUUACCUGGUA: 0.112; for GUCAUCUUUCACCUGCGCGUGAAAGAGAGAAGUGAACCAGAGAAACACACGUUGUGGUAUAUUACCUGGUA: 0.223; for GUCGUCUUUCACGUGCGCGUGAAAGAGAGAAGUGAACCUGAGAAACACACGUUGUGGUAUAUUACCUGGUA: 0.123.
Turning to GUCGUCUUUCACGUGCGCGUGAAAGCGAGAAGUGAACCAGAGAAACACACGUUGUGGUAUAUUACCUGGUA, the self-cleavage is 0.259.
The same measure for GUCAUCUUUCACGUGCGCGUCAAAGAGAGAAGUGAACCAGAGAAACACACGUUGUGGUAUAUUACCUGGUA: 0.175; for GUCAUCUUUCACGUGCGCGUUAAAGAGAGAAGUGAACCAGAGAAACACACGUUGUGGUAUAUUACCUGGUA: 0.178; for GUCAUCUUUCACGUGCGCGUGAAAUAGAGAAGUGAACCAGAGAAACACACGUUGUGGUAUAUUACCUGGUA: 0.214.
In the case of GUCAUCUUUCACGUGGGCGUGAAAGAGAGAAGUGAACCAGAGAAACACACGUUGUGGUAUAUUACCUGGUA, the self-cleavage turned out to be 0.236.
Under GUCAUCUUUCACGUGCGCGUGAAAGAGAGAAAUGAACCAGAGAAACACACGUUGUGGUAUAUUACCUGGUA stands 0.195.
Consider GUCAUCUUUCACGUGCGCGUGAAAGAGAGAACUGAACCAGAGAAACACACGUUGUGGUAUAUUACCUGGUA, for which the self-cleavage worked out at 0.155.
Under GUCAUCUUUCACGUGCGCGUGAAAGAGAGAAUUGAACCAGAGAAACACACGUUGUGGUAUAUUACCUGGUA stands 0.168; under GUCGUCUUUCACGUGAGCGUGAAAGAGAGAAGUGAACCAGAGAAACACACGUUGUGGUAUAUUACCUGGUA, 0.304; under GUCGUCUUUCACGUGUGCGUGAAAGAGAGAAGUGAACCAGAGAAACACACGUUGUGGUAUAUUACCUGGUA, 0.194.
The same measure for GUCAACUUUCACGUGCGCGUGAAAGAGAGAAGUGAACCAGAGAAACACACGUUGUGGUAUAUUACCUGGUA: 0.125; for GUCGUCUUUCACGUGCGCGUGAAAGAGAGAAGUGAACCAGAGACACACACGUUGUGGUAUAUUACCUGGUA: 0.136; for GUCAUCUUUCACGUCCGCGUGAAAGAGAGAAGUGAACCAGAGAAACACACGUUGUGGUAUAUUACCUGGUA: 0.358.
The same measure for GUCAUCUUUCACGGGCGCGUGAAAGAGAGAAGUGAACCAGAGAAACACACGUUGUGGUAUAUUACCUGGUA: 0.0473; for GUCAUCUUUCACGCGCGCGUGAAAGAGAGAAGUGAACCAGAGAAACACACGUUGUGGUAUAUUACCUGGUA: 0.115.
Regarding GUCGUCUUUCACGUGCGCGUGAAAGAGAGAAGUGAACCAGAGAAACACACGUUGUGGUAUGUUACCUGGUA, the self-cleavage turned out to be 0.098.
The same measure for GUCGUCUUUCACGUGCGCGUGAAAGAGAGAAGUGAACCAGAGAAACACACGUUGUGGUAUCUUACCUGGUA: 0.164; for GUCGUCUUUCACGUGCGCGUGAAAGAGAGAAGUGAACCAGAGAAACACACGUUGUGGUAUUUUACCUGGUA: 0.0796.
The same measure for GUCAUCUUUCACGUGCCCGUGAAAGAGAGAAGUGAACCAGAGAAACACACGUUGUGGUAUAUUACCUGGUA: 0.225; for GUCGUCUUUCACGUGCGCGUGAAAGAGAGAAGUGAACCAGAGAAACACACGUUGUGGUAUAUUACCUGGUA: 0.225; for GUCAUCUUUCACGUGCGCGUGAAAGAGAGAAGUGAACCAGAGAAACACACGUUGUGGUAUAUUACCUGAUA: 0.141.
Under GUCAUCUUUCACGUGCGCGUGAAAGAGAGAAGUGAACCAGAGAAACACACGUUGUGGUAUAUUACCUGGCA stands 0.119; under GUCAUCUUUCACGUGCGCGUGAAAGAGAGAAGUGAACCAGAGAAACACACGUUGUGGUAUAUUACCUGGAA, 0.25; under GUCGUCUUUCACGUGCGCGUGAAAGAGAGAGGUGAACCAGAGAAACACACGUUGUGGUAUAUUACCUGGUA, 0.238.
On to GUCGUCUUUCACGUGCGCGUGAAAGAGAGAAGUGAACCAGAGUAACACACGUUGUGGUAUAUUACCUGGUA, for which the self-cleavage is 0.053.
The same measure for GUCGUCUUUCACGUGCGCGUGAAAGAGAGAAGUGAACCAGAGCAACACACGUUGUGGUAUAUUACCUGGUA: 0.121; for GUCAUCUUUCACGUGCGCGUGAAAGAGAGAAGUGAACCAGAGAAACACACGUUGUGGUGUAUUACCUGGUA: 0.145.
The same measure for GUCAUCUUUCACGUGCGCGUGAAAGAGAGAAGUGAACCAGAGAAACACACGUUGUGGUAUAUUACAUGGUA: 0.146.
Take GUCAUCUUUCACGUGCGCGUGAAAGAGAGAAGUGAACCAGAGAAAAACACGUUGUGGUAUAUUACCUGGUA: the self-cleavage turned out to be 0.146.
Under GUCAUCUUUCACGUGCGCGUGAAAGAGAGAAGUGAACCAGAAAAACACACGUUGUGGUAUAUUACCUGGUA stands 0.111; under GUCAUCUUUCACGUGCGCGUGAAAGAGAGAAGUGAACCAGAGAAACACACCUUGUGGUAUAUUACCUGGUA, 0.261; under GUCAUCUUUCACGUGCGCGUGAAAGAGAGAAGUGAACCAGAGAAACACACGUUGUGGUAUAUUACCUAGUA, 0.17.
Take GUCAUCUUUCACGUGCGCGUGAAAGAGAGAAGUGAACCAGAGAAACACACGUUGUGGUAUAUUACCUCGUA: the self-cleavage was 0.141.
Regarding GUCAUCGUUCACGUGCGCGUGAAAGAGAGAAGUGAACCAGAGAAACACACGUUGUGGUAUAUUACCUGGUA, the self-cleavage came out at 0.221.
Regarding GUCGUCUUUCACGUGCGCGUGAAAGAGAGAAGUGAGCCAGAGAAACACACGUUGUGGUAUAUUACCUGGUA, the self-cleavage turned out to be 0.248.

For the origin of these results see the RNAGym collection of RNA variant scans (doi:10.7554/elife.80360).
